{"source": "paper PMC11934133", "about": "(2025)", "binders": {"B1": {"name": "ZIKV_NbD6 with C-terminal StrepTag-II (VHH)", "VHH": "EVQLVESGGGSVQPGGSLRLSCAASGFAFSHYAMRWVRQAPGKGLEWVSVINSDGEDTWYADSVKGRFTISRDNAKNTLYLQMNSLKPEDTGVYYCAIGRTHDTKGQGTQVTVSS"}, "B2": {"name": "GST-tagged ZIKV_NbD6 (VHH)", "VHH": "EVQLVESGGGSVQPGGSLRLSCAASGFAFSHYAMRWVRQAPGKGLEWVSVINSDGEDTWYADSVKGRFTISRDNAKNTLYLQMNSLKPEDTGVYYCAIGRTHDTKGQGTQVTVS"}, "B3": {"name": "GST-tagged ZIKV_Nb32 (VHH)", "VHH": "EVQLVESGGGLVQAGGSLRLSCAVSGIDFSRYAITWNRQSPGNQRREWVATLPPADTTVYADAVKGRFTISRDNTKNTVYLQMNSLKPEDTAVYYCATSPRIHNWGQGTQVTVS"}, "B4": {"name": "ZIKV_Nb32 with C-terminal StrepTag-II (VHH)", "VHH": "EVQLVESGGGLVQAGGSLRLSCAVSGIDFSRYAITWNRQSPGNQRREWVATLPPADTTVYADAVKGRFTISRDNTKNTVYLQMNSLKPEDTAVYYCATSPRIHNWGQGTQVTVSS"}}, "key": {"[1]": {"target": "T1, Zika virus SPH2015 nonstructural protein 1 (NS1) (Zika virus (strain SPH2015))", "T1 chain": "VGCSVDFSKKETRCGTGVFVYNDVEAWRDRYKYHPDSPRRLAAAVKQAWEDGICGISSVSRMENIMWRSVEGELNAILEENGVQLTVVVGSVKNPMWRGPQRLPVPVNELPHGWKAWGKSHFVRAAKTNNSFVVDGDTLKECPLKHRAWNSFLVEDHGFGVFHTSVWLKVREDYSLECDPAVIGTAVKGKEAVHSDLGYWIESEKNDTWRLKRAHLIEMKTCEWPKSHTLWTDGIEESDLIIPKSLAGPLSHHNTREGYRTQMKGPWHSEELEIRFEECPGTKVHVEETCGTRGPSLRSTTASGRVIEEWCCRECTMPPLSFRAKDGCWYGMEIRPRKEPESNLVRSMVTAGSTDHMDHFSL", "experiment": "BLI"}, "[2]": {"target": "Zika virus SPH2015 nonstructural protein 1 (NS1) (Zika virus (strain SPH2015))", "experiment": "BLI", "remark": "listed apart in the source"}, "[3]": {"target": "T1, Zika virus SPH2015 nonstructural …", "experiment": "BLI; NS1 saturated with Nb32-Strep"}, "[4]": {"target": "T1, Zika virus SPH2015 nonstructural …", "experiment": "BLI; GST-VHH immobilized, NS1 in solution"}, "[5]": {"target": "T1, Zika virus SPH2015 nonstructural …", "experiment": "BLI; NS1 immobilized, GST-VHH in solution"}}, "data": [{"binder": "B1", "values": [{"measurement": "koff", "setting": "[1]", "value": 0.002, "unit": "s⁻¹"}, {"measurement": "Kd", "setting": "[2]", "value": 8, "unit": "nM"}, {"measurement": "fold increase of koff against the GST-tagged nanobody", "setting": "[2]", "value": 26, "unit": "fold"}, {"measurement": "fold increase of kon against the GST-tagged nanobody", "setting": "[2]", "value": 3.6, "unit": "fold"}, {"measurement": "Kd", "setting": "[3]", "value": 5.9, "unit": "nM"}]}, {"binder": "B2", "values": [{"measurement": "koff", "setting": "[4]", "value": "< 1e-07", "unit": "s⁻¹"}, {"measurement": "koff", "setting": "[5]", "value": "7.6e-05", "unit": "s⁻¹"}]}, {"binder": "B3", "values": [{"measurement": "Kd", "setting": "[2]", "value": 0.035, "unit": "nM"}, {"measurement": "fold increase of koff against the orientation with the nanobody immobilised", "setting": "[2]", "value": "> 100", "unit": "fold"}, {"measurement": "koff", "setting": "[4]", "value": "< 1e-07", "unit": "s⁻¹"}, {"measurement": "koff", "setting": "[5]", "value": "2e-05", "unit": "s⁻¹"}]}, {"binder": "B4", "values": [{"measurement": "koff", "setting": "[1]", "value": 0.00029, "unit": "s⁻¹"}, {"measurement": "Kd", "setting": "[2]", "value": 0.16, "unit": "nM"}, {"measurement": "fold increase of koff against the GST-tagged nanobody", "setting": "[2]", "value": 15, "unit": "fold"}, {"measurement": "fold increase of kon against the GST-tagged nanobody", "setting": "[2]", "value": 3.2, "unit": "fold"}]}]}
